experiment: soluble on expression in E. coli; label from the status in PepcDB or PDB records

Sequence | soluble on expression in E. coli
MGSDKIHHHHHHMIILGIHDGHDAGAVLLNDEEIYAVNEERLNRVKKYRGFPELSIRKVLEMSGTEPDDVDVIAIAGLFRRQKRLLELEHKLKSIFGPKFKEKAIFVEHHLAHASSAYYSSGLRDAVVLTIDAAGDGLSSTVSIAKDGQMFRIAQSTYIDSLGDFYASVTELLGFKPMRHEGKVMSLAAYGNPRYELSAIIELNGLTFENKLKVIGTEATKKLAEFFEFPLEKAKEVSSNLKRGIMDNELEKKAIEIAASAQAHLERLIEEMGLELKKYELPIAYAGGVAQNVKANAILRRIFGDIWIFPAMDDAGLAFGAAIYVKAQMELLFGKWKPFKLKHVFLGPSYSPEEIEEILKREGLEYEEVDVPSFVADSLVEGKLVGLFQGRLEYGPRALGNRSILADPRNEKVREKLNLALRRDVFQPFAPSILEERFPDYIEDLTGEPNRFMTMSYLASEEFMEVAPAVVHIDGTTRPQSVPKDLGTYYKIIRRFEKRTGVGAVLNTSFNMHGEPIVCSPLDAIRTAKSAKLDVLLLERFGVYIV | not soluble
MTKAFDAFERAIRDAEDLLARHDAEKTVPNGHNGEVLKRAGLVMALAAWETYVKDRLQSEIDTWLQAVEGSPLGKFVRRRLEEDLKRFFNPNDERTRRIFIDYFDVDITKDWVWENYDSSTSKKVLDSLVAKRGDAAHKANTALHASAEPHKVKRDELEKGIRFLKGLVAATEKAKITK | not soluble
MGKYQPSFQTKKGWTEVICGPMFSGKTEKLLHKIKRWKIAKISVVIFKPIIDTRQTNIVKSRNGEYDQAITINSPFEIYDHLVDKNYQIVAIDEAQFFSNEIIEVVTTLNEIGTNVIISGLDTDFRAEPFGCIPQLLAIADVVNKLDAICNVCGSLAQRTQRLVNKNTNDNLVLIGDAEAYEARCKLHHSFLTKKHVTVKTKNFKEQVQGKTQLEHHHHHH | not soluble
MSIEIANIKKSFGRTQVLNDISLDIPSGQMVALLGPSGSGKTTLLRIIAGLEHQTSGHIRFHGTDVSRLHARDRKVGFVFQHYALFRHMTVFDNIAFGLTVLPRRERPNAAAIKAKVTKLLEMVQLAHLADRYPAQLSGGQKQRVALARALAVEPQILLLDEPFGALDAQVRKELRRWLRQLHEELKFTSVFVTHDQEEATEVADRVVVMSQGNIEQADAPDQVWREPATRFVLEFMGEVNRLQGTIRGGQFHVGAHRWPLGYTPAYQGPVDLFLRPWEVDISRRTSLDSPLPVQVLEASPKGHYTQLVVQPLGWYNEPLTVVMHGDDAPQRGERLFVGLQHARLYNGDERIETRDEELALAQSA | soluble
MSLAYGIRLLVWGERACFTRPEMKVERVSYDVITPSAARGILEAIHWKPAICWVVDRIHVLKPIRFESIRRNEVGGKLSAASVGKAMKAGRTDGLIALADEDRQQRAATVLRDVSYVIEAHFELTARADASDSEGKHLDIFNRRARKGQYFHAPCLGVREFPASFELIEPDDVLPAVPADLRGERELGWMLHDIDFANDMTPHFFRAVMRDGVIEVPALRSEGVKAEGHHHHHH | soluble
MNGKARISIAIDGPAGAGKSTIAKIISKTLNILYLDTGAMYRAVALKAIRESVDTLNREQMSKLVENIDIKIAHSEDIQRIFLDGEDVTDFIRTPEVSIGASNVATVPAVRLKMVELQREIAKKNSVVMDGRDIGTYVLPDATLKFFLTASVEARAIRRYNELLSKGITQITLEDVKKDIEYRDKNDSNREFAPLSKAPDAIEIDTTDLTIEQVVNKIMEYAKDYVC | soluble
MSLKILLKQAMVYPITSQKFQGDVLVIGEKIAEVKPFIQPTQDMTVIDARALHLLPGFIDVHTHLGLYDEGTGWAGNDANETSEVSTPHIRSLDGIHPLDIAFQDAVQNGITTVHVMPGSQNIIGGTTCVIKTAGTCIDHMIIQEPAGLKIAFGENPKKVHSNGTKESITRMGIMGLLRESFYEAQHYGHEADFRMLPILKALRREIPVRIHAHRADDISSALRFATEFNLDLRIEHCTEGHFIVEELSKHNLKVSVGPTLTRRSKIELKNKTWDTYHILSKSGVEVSITTDHPYTPIQYLNLCAAVAVREGLDEKTALEGITIFPARNLRLEDRIGSIEVGKDADLVLWTHHPFHYLAKPVLTMIDGKIIYKKNKKNEGHHHHHH | not soluble
GLPRHSAVMERLRRRIELCRRHHSTCEARYEAVSPERLELERQHTFALHQRCIQAKAKRAGKH | soluble
MGSDKIHHHHHHMRYLSKDILEEVITQRPSDSYKSNFGRVVLIGGNRQYGGAIIMSTEACINSGAGLTTVITDVKNHGPLHARCPEAMVVGFEETVLLTNVVEQADVILIGPGLGLDATAQQILKMVLAQHQKQQWLIIDGSAITLFSQGNFSLTYPEKVVFTPHQMEWQRLSHLPIEQQTLANNQRQQAKLGSTIVLKSHRTTIFHAGEPFQNTGGNPGMATGGTGDTLAGIIAGFLAQFKPTIETIAGAVYLHSLIGDDLAKTDYVVLPTKISQALPTYMKKYAQPHTAPDSELLEQKRSR | not soluble
MGSDKIHHHHHHMKCVVCGKNEAVEHGVCSQCLFDRANIENIGNVNIAICPKCGSVRIGKKWYREDYADHLLPLIMDEVKCSDPEAKISGDPKSVYFDESNRNLVLKVNITRDHMDPKVQTVSVPYSVNYISCPTCNKLTGSYFEATIQLRTVSTKYDEILSEVLDSIEKIMEKRRKMDASSFISKIERKPEGVDIYLGKKGDGDLVSSFILDHYFATLIVSKSLAGVKEGRKFFRFTYSLRILDAPEGAIVSVDKRKYILTAIRNRHIDVIDVETEERGRINRNVFFSNDGKIVTKEPQVKNFIVISRTEDESQIMDSQTFKIITIKGRAEGNEIRVFTYRGKYFI | not soluble
SDNISLEYFEEAVCYMLQHPQVKGPGIGLLGISLGADICLSMASFLKNVSATVSINGSGISGNTAINYKHSSIPPLGYDLRRIKVAFSGLVDIVDIRNALVGGYKNPSMIPIEKAQGPILLIVGQDDHNWRSELYAQTVSERLQAHGKEKPQIICYPGTGHYIEPPYFPLCPASLHRLLNKHVIWGGEPRAHSKAQEDAWKQILAFFCKHLGGTQKTAVPKL | soluble
MKILLYFEGEKILAKSGIGRALDHQKRALSEVGIEYTLDADCSDYDILHINTYGVNSHRMVRKARKLGKKVIYHAHSTEEDFRNSFIGSNQLAPLVKKYLISLYSKADHLITPTPYSKTLLEGYGIKVPISAISNGIDLSRFYPSEEKEQKFREYFKIDEEKKVIICVGLFFERKGITDFIEVARQLPEYQFIWFGDTPMYSIPKNIRQLVKEDHPENVIFPGYIKGDVIEGAYAAANLFFFPSREETEGIVVLEALASQQQVLVRDIPVYQGWLVANENCYMGHSIEEFKKYIEGLLEGKIPSTREAGYQVAEQRSIKQIGYELKEVYETVLS | not soluble
MGKVYIVGAGPGDPDLITVKGLKCIEKADVILYDRLVNKELLSYAKPEADLIYCGKLPNYHTMKQETINTFLIKYAKKGKIVTRLKGGDPFVFGRGGEEAEALAKQGVPFEIVPGISAGIAAPAYAGIPVTHRDASASFAIVTGHRKEDAAEEVKWGNLAKGVETLAVYMGVSNLPYICEQLMKHGKDKSTPAAIIERGTTSMQRTVVGTLGTIVDVAKKEQIQNPSMIVIGEVVRFREKIHWFEKQTESTYQVSGVL | not soluble
MSLKTLNIYLMRHGKVDAAPGLHGQTDLKVKEAEQQRIAMAWKTKGYDVAGIISSPLSRCHDLAQILAEQQLLPMTTEDDLQEMDFGDFDGMPFDLLTEHWKKLDAFWQSPAHHSLPNAESLSTFSQRVSRAWSQIINDINDNLLIVTHGGVIRIILAHVLGVDWRNPQWYSTLAIGNASVTHITITIDDQIYASVRSIGVPLVEEGHHHHHH | soluble
MATHKPINILEAFAAAPPPLDYVLPNMVAGTVGALVSPGGAGKSMLALQLAAQIAGGPDLLEVGELPTGPVIYLPAEDPPTAIHHRLHALGAHLSAEERQAVADGLLIQPLIGSLPNIMAPEWFDGLKRAAEGRRLMVLDTLRRFHIEEENASGPMAQVIGRMEAIAADTGCSIVFLHHASKGAAMMGAGDQQQASRGSSVLVDNIRWQSYLSSMTSAEAEEWGVDDDQRRFFVRFGVSKANYGAPFADRWFRRHDGGVLKPAVLERQRKSKGVPRGEA | soluble
MVNTIGFDREKYIEMQSQHIRERREALGGKLYLEMGGKLFDDMHASRVLPGFTPDNKIAMLDRIKDEVEILVCINAKDLERHKIRADLGISYEEDVLRLVDVFRDRGFLVEHVVLTQLENDNRLALAFIERLQRLGIKVSRHRVIPGYPTDMDRIVSDEGFGLNEYAETTRDLVVVTAPGPGSGKLATCLSQVYHEHKRGVAAGYAKFETFPIWNLPLEHPVNLAYEAATVDLNDANVIDHFHLAAYGEQTVNYNRDVEAFPLLKTLLERLMGESPYQSPTDMGVNMAGNCISDDAACRHASEQEIIRRYFKALVEEARTGKDSTQSDRAAVVMAKAGIKASQRVVVEPARQVEERTSLPGCAIELVDGSIITGATSDLLGCSSSMLLNALKHLAGIDDAIHLLSPESIEPIQTLKTVHLGSSNPRLHTDEVLIALSVSAATDSNAQKALDQLKNLRGCDVHTTTILGSVDEGIFRNLGVLVTSDPKFQKNKLYQKR | not soluble
MVHIRLSFITFSLILFLVVDMVKIPKSHPRYWSLLYREKIIEGMEKGITAKAGLIAHGRGEAFDYLIGEKTIPPAETAMRAAIAKLLLAKHPVISVNGNVAALVPKETVELAKVLNAKLEINLFYRTEERVKKIAEVLYENGADEVLGINPTKRIPGLESERGKVDENGIWKADVILVPLEDGDRTEALCRMGKFVITVDLNPLSRSARMADITIVDNIVRAYPRMIELAKEMKSLPKEDLEKIVATYDNSKVLSEVLIHIRDRLTKLAEGGIWKKEKLEHHHHHH | not soluble
MMMGEVQSLPSCGLHPRLLDALTLALAARPQEKAPGRYELQGDNVFMNVMQLTTQMPAEKKAELHEQYIDIQLLLTGVERIAFGMSGAARQCEEMHVEEDYQLCSQIVDEQTITLQAGMFAVFMPGEPHKPGCAVGEPDDIKKVVVKVRASLLAA | not soluble
MPVERVIDRPTPEEHLLERILATENMDLAWKRVRANKGAPGVDGVTIDAFPERFRPLWGDIRASLATGTYQPQPVLRVEIPKPTGGTRPLGIPTVLDRLIQQATAQVLTPIFDPEFSASSFGFRPGRSAHNAVRQLREYLRQGYRIAVDIDLAKFFDTVNHDLLMTMVGRRVRDKRVLTLIGRYLRAGVEVDGRLEKTRMGVPQGGPLSPLLANILLDHLDKELESRGHKFVRYADDFVILVKSERAGERVMGSVRKYLTNKLKLTVNEDKSKVARSGDLSFLGFVFKGTKILWSDQAYKEFRRRVRKYTGRSWFVSMEYRLNKLSTYLRGWMGYFGIAEAYRDIPEIDGWIRRRVRLCYWKQWRWCRTKIRNLLKLGVQLGTSIRAGLNRNGPWAMSRRLAAQHGMTNQWLKDQGLVSVKELWVKIHYPATARLEHHHHHH | not soluble
MDSLQKTTMIDLLLRSDKRRKILLFLKEGPKNIEEITALLGSSCTAVLPQMKKLIEKGLVRQENKIYRLSTVGMIVTEKLVPLLGTIEVFENNLEYWAQKDLTGIPAFLRLKLEMLSQYEVIEPQLNRMFEPPEEFINSLKKSTEIMYFSSFFQPCFSGFDQDFLKKRTDSTFIFTKNFFERISSPHSEEYDELLLPERANLYVYDGISSLVSLTVTERFMALMLLNKKGKLDQNLLISSESEAIEWGKELFMYYREISKKIYGDKADRLLSEKIIPPGKKSGYGTGSDLLQISCLRKTKYKMAAALEHHHHHH | not soluble
